In US20130209458A1 one finds Kd data, which are given here for two substances.

The assay deals with MUC1 (TA-Muc1) on the human tumor cell line ZR-75-1 (human) (UniProt P15941). The assay can be described thus: Scatchard analysis, 111In-labelled antibody on ZR-75-1 cells.

The Kd is the equilibrium constant for the complex coming apart. In turn, PankoMab expressed in CHO (antibody) showed a Kd of 7.8 nM. Take PankoMab expressed in GT-5s (antibody): the Kd was 3.33 nM.
